According to patent US7090834B1, “Vascular endothelial cell growth factor variants and uses thereof” (Genentech, Inc., priority 1999, dated 2006):
Changes are numbered by the printed parent chain. Numbers in names are those of the source.

What was measured:
HUVEC cells = assay: HUVEC migration, modified Boyden chamber assay; format: cell-based, human
Protocol: One of the central aspects of VEGF action on endothelial cells is its ability to act as a chemoattractant and stimulate the migration of endothelial cells. HUVEC cell migration was analyzed in a modified Boyden chamber assay as follows.
Falcon 8.0 micron filter inserts (Falcon 3097) were coated with type 1 collagen (VITROGEN, COHESION). HUVEC (obtained from Cell Systems, <passage 8) were grown in Cell Systems complete media (4ZO-500) with 10% FCS. Cells were trypsinized and transferred to EBM (Endothelial basal media, Clonetics) with 0.1% BSA for the assay. Cells were plated at 5×10^4 per upper chamber. […] The assay was routinely an 18 hour assay at 37° C. For the LY294002 inhibitor experiments, cells were allowed to adhere for 30 minutes prior to addition of the inhibitor. 20 minutes after inhibitor addition, VEGF was added to the bottom well and the assay was allowed to proceed for only 4 hours to avoid the occurrence of apoptosis associated with the treatment of these primary cells with LY294002 (purchased from Biomol).
Cells were removed from the upper side of the membrane by scraping with a polyurethane swab and then the remaining cells on the bottom side of the membrane were fixed with methanol. Cells were stained with Yo-Pro Iodide nuclear stain (Molecular Probes) and counted under low power fluorescence using an Image-Pro cell recognition program.

[1] = biological target: T1, KDR receptor (soluble radio-immuno receptor-binding assay) (UniProt P35968 20-764, limits assumed); assay: soluble radio-immuno receptor-binding assay (RIA)
T1 construct: the receptor construct is not described
Protocol: For example, quantitative binding measurements were carried out using a soluble radio-immuno receptor-binding assay (RIA), as described in Example 6 above.

PLC-gamma in HUVEC cells = assay: PLC-gamma tyrosine phosphorylation after immunoprecipitation; format: cell-based, human; conditions: 20 ng/ml, 5 minutes, FIG. 13A
Protocol: In order to determine which VEGF receptor(s) are involved in PLC-gamma activation in primary endothelial cells, HUVEC cells were treated with native VEGF or VEGF receptor-selective variants and PLC-gamma phosphorylation was assessed after immunoprecipitation.
Passage 4–7 HUVEC cells (Cell Systems, Kirkland, Wash.) were grown in Cell System's complete medium (AZ0-500) with 10% fetal calf serum and growth factors on gelatin-coated dishes and made quiescent by 14 hour starvation in 0.2% serum. […] The cells were then lysed in 0.5–1 ml RIPA buffer containing 0.1 mM sodium orthovanadate, 5 mM para-nitrophenylphosphate, 10 mM sodium fluoride, 0.5 micromolar okadaic acid and a protease inhibitor cocktail (Roche MB 1836145). PLC-gamma was then immunoprecipitated from whole cell lysates using monoclonal antibodies (Upstate Biotechnology) and analyzed for tyrosine phosphorylation (FIG. 13A) or lysates were immunoprecipitated with monoclonal antibodies against p85 PI 3′-kinase (purchased from Transduction Labs (P13020) and Neomarkers (MS424-P)) and tested for phosphotyrosine using phosphotyrosine antibodies PY20 or E120H (Transduction Labs) (FIG. 13B). Immunoprecipitation was conducted as follows. Protein A/G beads (Pierce) were blocked for nonspecific protein binding in 50 mM HEPES pH 7.2, 0.1% TX-100, 150 mM NaCl and 1 mg/ml ovalbumin for 30 minutes. Antibodies were precoupled in the same buffer for 1 hour at 4° C. with head over end rotation and beads were washed 3 times in lysis buffer. Beads were added to the lysates and rotated overnight. Beads were washed sequentially in 50 mM Tris pH 7.6, 150 mM NaCl, 1% TX-100, 1 mM CaCl2; 50 mM Tris pH 7.6, 500 mM NaCl, 0.1% TX-100, 1 mM CaCl2 and 50 mM Tris pH 7.6, 150 mM NaCl, 0.05% TX-100, 1 mM CaCl2. Beads were then resuspended in 2× sample buffer and boiled. Supernatants were applied directly to 4–12% Tris-Glycine gradient gels (Novex).

corneal angiogenesis = assay: Corneal pocket angiogenesis assay; format: in vivo, Sprague-Dawley rats; conditions: rat, pellet with 200 ng growth factor, day 6, FIGS. 15A and 15B
Protocol: Assays were performed as described by Polyerini et al., Methods Enzymol., 198:440–450 (1991) with the following modifications. Sprague-Dawley rats were anesthetized using a gas (isoflurane)/injectable ketamine (80 mg/kg)/xylazine (15 mg/kg) combination. The eyes were gently proptosed and secured in place using nontraumatic forceps. With a #15 blade, a 1.5 mm incision was made slightly below the center of the cornea. Using a micro spatula (ST80017, ASSI), the incision was carefully blunt-dissected through the stroma toward the outer canthus of the eye. […] After surgery, the eyes were coated with gentamicin ointment. At day 6, the animals were injected with high molecular weight FITC-dextran and euthanized to allow for visualization of the vasculature. Corneal whole mounts were made of the enucleated eyes and measurements of the neovascular area completed using computer-assisted image analysis (Image-Pro Plus).

[2] = tested on: ERK1 and ERK2 in HUVEC cells; assay: Activation of MAP kinases, ERK1/ERK2 phosphorylation Western blot; format: cell-based, human; conditions: 50 ng/ml or 10 ng/ml, 5 minutes, FIG. 12A
Protocol: Passage 4–7 HUVEC cells (Cell Systems, Kirkland, Wash.) were grown in Cell System's complete medium (AZ0-500) with 10% fetal calf serum and growth factors on gelatin-coated dishes and made quiescent by 14 hour starvation in 0.2% serum. […] The HUVEC cells were then lysed in 0.5–1 ml RIPA buffer containing 0.1 mM sodium orthovanadate, 5 mM para-nitrophenylphosphate, 10 mM sodium fluoride, 0.5 micromolar okadaic acid and a protease inhibitor cocktail (Roche MB 1836145). Western blot analysis was then conducted, probing for phosphorylated ERK1 or ERK2 using anti-phospho ERK antiserum (Promega).

Flt-1 receptor = assay: RIA assay, binding to FLT-1 receptor; conditions: relative to native VEGF 165 = 1
Protocol: Various assays were conducted to examine the properties and biological activities of the I43A/I46A/Q79A/I83A Flt-sel variant. For example, quantitative binding measurements were carried out using a soluble radio-immuno receptor-binding assay (RIA), as described in Example 6 above.

[3] = biological target: gD-KDR receptor on CHO cells (UniProt P35968 20-1356); assay: cell-based or functional assay
KDR receptor = KDR receptor (Homo sapiens, UniProt P35968); assay: KDR receptor binding ELISA (inhibition of biotinylated native VEGF (8–109) binding); conditions: second figure of the cell, variant midpoint concentration divided by that of native VEGF
Protocol: (§1) Receptor binding assays were performed in 96-well immunoplates (Maxisorp, Nunc-Immunoplate, Nalge Nunc International, Rochester, N.Y.). Each well was coated with 100 μl of a solution containing 8 μg/ml of a monoclonal antibody to KDR known as MAKD5 (Genentech, South San Francisco, Calif.) in 50 mM carbonate buffer at pH 9.6 and incubated at 4° C. overnight. The supernatant was discarded, the wells were washed three times in washing buffer (0.05% Tween 20 in PBS), and the plate was blocked (150 μl per well) with block buffer (0.5% BSA, 0.01% thimerosal in PBS) at room temperature for one hour. The supernatant was discarded, and the wells were washed.
(§2) Aliquots of this mixture (100 μl) were added to the precoated microtiter wells and the plate was incubated for 1 hour at room temperature. […] The wells were then incubated with 3, 3′, 5,5′-tetramethyl benzidine (0.2 gram/liter; Kirkegaard & Perry Laboratories, Gaithersburg, Md.) for about 10 minutes at room temperature. Absorbance was read at 450 nm on a Vmax plate reader (Molecular Devices, Menlo Park, Calif.).
(§3) Titration curves were fit with a four-parameter nonlinear regression curve-fitting program (KaleidaGraph, Synergy Software, Reading, Pa.).

Flt-IgG = biological target: T2, Flt-IgG (UniProt P17948 27-758, limits assumed); assay: competition ELISA vs biotinylated native VEGF for Flt-IgG
T2 construct: also called chimeric Flt-human Fc molecule; not shown: human IgG Fc
Protocol: Receptor binding assays were performed in 96-well immunoplates (Maxisorp, Nunc-Immunoplate, Nalge Nunc International, Rochester, N.Y.). Each well was coated with 100 μl of a solution containing 2 μg/ml of rabbit F(ab')2 to human IgG Fc (Jackson ImmunoResearch, West Grove, Pa.) in 50 mM carbonate buffer at pH 9.6 and incubated at 4° C. overnight. The supernatant was then discarded, the wells were washed three times in washing buffer (0.05% Tween 20 in PBS), and the plate was blocked (150 μl per well) with block buffer (0.5% BSA, 0.01% thimerosal in PBS) at room temperature for one hour. The supernatant was discarded, and the wells were washed.
The wells were filled with 100 μl of a solution containing Flt-IgG (a chimeric Flt-human Fc molecule) at 50 ng/ml in assay buffer (0.5% BSA, 0.05% Tween 20 in PBS). The wells were incubated at room temperature for 1 hour and then washed three times in wash buffer (0.05% Tween 20 in PBS).
as §2, with “the” for “this”, “2 hours” for “1 hour”, “3', 5,5'-tetramethyl” for “3′, 5,5′-tetramethyl”, “g/liter,” for “gram/liter;”

[4] = biological target: T1, KDR receptor (soluble radio-immuno …); assay: RIA (essentially as Muller et al. 1997)
[5] = biological target: T3, FLT-1 receptor (soluble radio-immuno receptor-binding assay) (UniProt P17948 27-758, limits assumed); assay: RIA (essentially as Muller et al. 1997)
T3 construct: the receptor construct is not described

KDR (1-3) = biological target: T4, KDR (1-3) (UniProt P35968 20-327, limits assumed); assay: competition ELISA vs biotinylated native VEGF (8-109) for KDR (1-3)
T4 construct: domain: domains 1 to 3; Genentech reagent; also called KDR (1-3) monomer; domains 1 to 3 of KDR
Protocol: as §1
as §2, with “3', 5,5'-tetramethyl” for “3′, 5,5′-tetramethyl”
as §3

[6] = biological target: KDR receptor on HUVEC cells (human, UniProt P35968 20-1356); assay: cell-based or functional assay
Chain of KDR receptor on HUVEC cells (P35968 20-1356): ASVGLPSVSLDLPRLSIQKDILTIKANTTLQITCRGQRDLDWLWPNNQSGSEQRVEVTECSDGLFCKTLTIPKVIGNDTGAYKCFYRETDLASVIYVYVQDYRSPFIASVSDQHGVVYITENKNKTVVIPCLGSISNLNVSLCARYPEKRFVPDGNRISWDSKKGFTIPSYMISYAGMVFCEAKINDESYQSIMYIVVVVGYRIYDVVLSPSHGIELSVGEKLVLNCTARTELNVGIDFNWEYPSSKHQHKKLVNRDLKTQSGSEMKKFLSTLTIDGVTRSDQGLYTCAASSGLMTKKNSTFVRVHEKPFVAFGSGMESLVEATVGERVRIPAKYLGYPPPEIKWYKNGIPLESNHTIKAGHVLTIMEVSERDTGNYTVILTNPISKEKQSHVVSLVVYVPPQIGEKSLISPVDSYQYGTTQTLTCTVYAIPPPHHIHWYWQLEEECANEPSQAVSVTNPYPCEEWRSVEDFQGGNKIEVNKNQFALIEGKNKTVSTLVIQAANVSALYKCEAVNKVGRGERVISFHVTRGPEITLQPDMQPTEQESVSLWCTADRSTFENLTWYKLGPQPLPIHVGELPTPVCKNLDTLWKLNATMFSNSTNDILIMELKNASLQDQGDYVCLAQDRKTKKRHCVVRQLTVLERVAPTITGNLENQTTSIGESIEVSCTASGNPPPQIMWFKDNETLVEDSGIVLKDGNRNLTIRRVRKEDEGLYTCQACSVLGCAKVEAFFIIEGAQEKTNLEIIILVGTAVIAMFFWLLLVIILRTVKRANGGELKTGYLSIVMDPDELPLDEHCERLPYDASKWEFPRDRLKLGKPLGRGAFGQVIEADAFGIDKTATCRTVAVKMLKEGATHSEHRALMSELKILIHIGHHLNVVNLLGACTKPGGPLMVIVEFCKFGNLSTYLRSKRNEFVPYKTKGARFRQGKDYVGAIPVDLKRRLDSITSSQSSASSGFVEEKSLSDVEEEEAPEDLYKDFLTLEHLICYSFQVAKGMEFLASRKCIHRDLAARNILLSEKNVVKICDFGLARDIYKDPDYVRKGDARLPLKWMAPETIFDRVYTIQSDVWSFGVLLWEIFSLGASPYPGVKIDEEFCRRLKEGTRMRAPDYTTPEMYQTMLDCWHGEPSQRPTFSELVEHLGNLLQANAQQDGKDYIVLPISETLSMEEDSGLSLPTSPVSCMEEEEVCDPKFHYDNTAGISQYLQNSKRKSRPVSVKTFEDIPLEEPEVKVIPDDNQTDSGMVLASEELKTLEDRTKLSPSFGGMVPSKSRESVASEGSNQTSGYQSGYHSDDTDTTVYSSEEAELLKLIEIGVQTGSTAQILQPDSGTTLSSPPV

T1 sequence (P35968 20-764 limits assumed): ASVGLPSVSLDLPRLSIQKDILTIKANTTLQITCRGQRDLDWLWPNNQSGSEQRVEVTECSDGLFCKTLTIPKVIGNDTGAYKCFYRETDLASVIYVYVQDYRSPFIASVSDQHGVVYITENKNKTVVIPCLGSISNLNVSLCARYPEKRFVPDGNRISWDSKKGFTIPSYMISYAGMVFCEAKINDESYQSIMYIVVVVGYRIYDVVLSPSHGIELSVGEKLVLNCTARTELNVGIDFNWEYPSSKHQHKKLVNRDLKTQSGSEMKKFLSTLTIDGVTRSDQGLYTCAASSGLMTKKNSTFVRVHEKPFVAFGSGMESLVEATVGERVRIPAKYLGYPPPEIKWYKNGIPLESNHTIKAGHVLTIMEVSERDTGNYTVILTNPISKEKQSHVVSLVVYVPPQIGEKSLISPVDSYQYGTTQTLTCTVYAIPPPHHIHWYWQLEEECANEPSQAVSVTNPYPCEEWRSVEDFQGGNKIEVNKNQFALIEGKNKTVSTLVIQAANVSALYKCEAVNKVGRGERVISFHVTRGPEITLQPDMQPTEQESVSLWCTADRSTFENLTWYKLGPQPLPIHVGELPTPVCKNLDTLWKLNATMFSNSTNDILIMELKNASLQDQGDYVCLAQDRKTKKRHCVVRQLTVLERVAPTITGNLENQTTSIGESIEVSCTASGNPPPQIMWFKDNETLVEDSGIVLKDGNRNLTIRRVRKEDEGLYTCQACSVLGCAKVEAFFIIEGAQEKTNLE
Chain of Flt-1 receptor (P17948 27-331 limits assumed): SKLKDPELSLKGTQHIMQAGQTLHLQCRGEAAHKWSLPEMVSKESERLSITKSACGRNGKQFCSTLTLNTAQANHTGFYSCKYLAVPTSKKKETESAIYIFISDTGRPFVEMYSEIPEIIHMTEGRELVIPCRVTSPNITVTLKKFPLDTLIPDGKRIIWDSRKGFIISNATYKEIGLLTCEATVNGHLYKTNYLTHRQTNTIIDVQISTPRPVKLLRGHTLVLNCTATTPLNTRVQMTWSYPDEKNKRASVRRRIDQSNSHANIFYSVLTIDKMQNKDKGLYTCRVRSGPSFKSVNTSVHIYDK
Chain of KDR receptor (P35968 20-327 limits assumed): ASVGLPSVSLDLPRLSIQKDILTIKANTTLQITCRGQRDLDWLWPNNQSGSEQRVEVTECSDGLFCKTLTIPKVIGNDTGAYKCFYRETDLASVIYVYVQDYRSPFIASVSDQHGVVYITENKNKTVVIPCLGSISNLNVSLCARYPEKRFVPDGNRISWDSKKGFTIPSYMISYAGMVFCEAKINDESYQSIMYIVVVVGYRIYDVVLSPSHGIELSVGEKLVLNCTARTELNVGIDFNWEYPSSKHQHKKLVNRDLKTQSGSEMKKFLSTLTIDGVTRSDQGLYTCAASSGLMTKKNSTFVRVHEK
T4 sequence (P35968 20-327 limits assumed): as above
T3 sequence (P17948 27-758 limits assumed): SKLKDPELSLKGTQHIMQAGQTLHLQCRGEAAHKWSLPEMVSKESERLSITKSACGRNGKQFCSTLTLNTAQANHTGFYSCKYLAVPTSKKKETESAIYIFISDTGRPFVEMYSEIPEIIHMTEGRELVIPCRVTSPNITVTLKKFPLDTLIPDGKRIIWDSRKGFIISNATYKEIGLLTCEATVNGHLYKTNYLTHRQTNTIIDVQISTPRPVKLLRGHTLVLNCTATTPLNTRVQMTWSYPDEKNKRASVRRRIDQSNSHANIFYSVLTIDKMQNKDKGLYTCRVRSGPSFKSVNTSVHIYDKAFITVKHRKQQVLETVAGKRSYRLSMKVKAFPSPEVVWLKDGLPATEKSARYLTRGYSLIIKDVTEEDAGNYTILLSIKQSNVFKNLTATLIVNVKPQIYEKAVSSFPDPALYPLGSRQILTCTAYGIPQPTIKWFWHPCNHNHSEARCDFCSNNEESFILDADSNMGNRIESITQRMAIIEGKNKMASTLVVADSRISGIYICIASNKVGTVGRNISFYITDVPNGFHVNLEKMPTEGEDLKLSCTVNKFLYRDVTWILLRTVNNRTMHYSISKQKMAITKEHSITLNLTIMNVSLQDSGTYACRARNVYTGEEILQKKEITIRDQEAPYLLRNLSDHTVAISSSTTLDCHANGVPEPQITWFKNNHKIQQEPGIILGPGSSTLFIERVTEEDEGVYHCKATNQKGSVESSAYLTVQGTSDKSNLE
T2 sequence (P17948 27-758 limits assumed): as above

## O=c1cc(N2CCOCC2)oc2c(-c3ccccc3)cccc12 [LY 294002, reference compound]
HUVEC cells; highest concentration of inhibitor, migration in response to native VEGF, 4 hours, FIG. 14B
  inhibition of HUVEC cell migration: 56%

B1: Flt-sel (I43A/I46A/Q79A/I83A, 1-109 short form) (ligand, human, UniProt P15692-4 27-135, looked up)
chain: APMAEGGGQNHHEVVKFMDVYQRSYCHPIETLVDIFQEYPDEAEYAFKPSCVPLMRCGGCCNDEGLECVPTEESNITMAIMRAKPHQGQHIGEMSFLQHNKCECRPKKD
notes: also called Flt-1-sel; Flt-1 selective variant
[1]
  fold reduced KDR-binding affinity (against native VEGF (8-109)): ≥ 470 fold

B2: Flt-1 selective VEGF variant: Flt-1 selective variant comprising a full length 165 sequence with I43A/I46A/Q79A/I83A (protein)
chain: B1 chain
PLC-gamma in HUVEC cells
  PLC-gamma phosphorylation: did not increase PLC-gamma phosphorylation over background levels
HUVEC cells; 18 hour assay, FIG. 14A
  promotion of HUVEC cell migration: unable to increase cell migration over background levels
Corneal angiogenesis
  induction of corneal angiogenesis: unable to stimulate angiogenesis over control levels
[2]
  phosphorylation of ERK1 and ERK2: barely detectable phosphorylation of ERK2

B3: LK-VRB-1s* (ligand, human, UniProt P15692-4 27-135, looked up)
chain: B1 chain with M18E, Y21L, Q22R, Y25S, A43I, A46I, A79Q, A83I
Flt-1 receptor
  Relative Binding Affinity, FLT-1 Receptor (RIA): 14,000
[3]
  Phosphorylation-Inducing Activity (KIRA assay): 0.5 ratio to native VEGF (8-109)
KDR receptor
  Relative Binding Affinity, KDR Receptor: ratio to native VEGF (8–109): 1 nM/1
Flt-IgG
  relative binding affinity (ratio to native VEGF (8-109)): 6000 ratio
[4]
  relative binding affinity (ratio to native VEGF 165): 20 ratio
[5]
  relative binding affinity (ratio to native VEGF 165): 14000 ratio
KDR (1-3)
  relative binding affinity (ratio to native VEGF (8-109)): 1 ratio
[6]
  Endothelial Cell Proliferation Activity (HUVEC, 3H-thymidine): 0.2 ratio to native VEGF (8-109)

B4: PlGF: VEGF-related molecule that binds Flt-1 but not KDR (R & D Systems) (protein)
chain: AVPPQQWALSAGNGSSEVEVVPFQEVWGRSYCRALERLVDVVSEYPSEVEHMFSPSCVSLLRCTGCCGDENLHCVPVETANVTMQLLKIRSGDRPSYVELTFSQHVRCECRPLREKMKPERCGDAVPRR
Corneal angiogenesis
  induction of corneal angiogenesis: only a marginal response
